Biological target: LhrD1536A (Escherichia coli MG1655, UniProt P30015 1-1538, D1536A)
Assay: EMSA; 5 mM EDTA; 12.5-200 nM protein, 12.5 nM DNA; similar to Lhr; 20 mM Tris pH 7.5, 10% glycerol, 100 ug/mL BSA, 25 mM DTT, 5 mM EDTA, 12.5 nM Cy5-DNA; 37 C 20 min then ice 10 min; 5% acrylamide TBE gel
Conditions: protein: recombinant; tags: His6; label: 5' Cy5; single strand

TCGGATCCTCTAGACAGCTCCATGATCACTGGCACTGGTAGAATTCGGC (ssDNA) [Cy5-ssDNA (EMSA)]: binds.
